Measurements: patent US20240182536A1 (MURAL ONCOLOGY, published 2024)
Numbering of substitutions follows the chain as printed. Names may count otherwise. Where two headings read alike, the source gives them in different places.

Tests used:
[1] = biological target: T1, human IL-18 binding protein (human, UniProt O95998 31-194); experiment: cell-based or functional assay
T1 sequence (looked up): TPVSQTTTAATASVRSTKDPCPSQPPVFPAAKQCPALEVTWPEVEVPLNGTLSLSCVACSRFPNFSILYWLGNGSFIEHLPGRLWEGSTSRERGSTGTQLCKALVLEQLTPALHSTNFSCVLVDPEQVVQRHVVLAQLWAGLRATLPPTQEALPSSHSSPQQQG

[2] = biological target: T2, IL-18 receptors on HEK-Blue IL-18 reporter cells (UniProt Q13478 19-541; O95256 20-599, limits assumed); experiment: cell-based or functional assay
T2 sequence (looked up) 1: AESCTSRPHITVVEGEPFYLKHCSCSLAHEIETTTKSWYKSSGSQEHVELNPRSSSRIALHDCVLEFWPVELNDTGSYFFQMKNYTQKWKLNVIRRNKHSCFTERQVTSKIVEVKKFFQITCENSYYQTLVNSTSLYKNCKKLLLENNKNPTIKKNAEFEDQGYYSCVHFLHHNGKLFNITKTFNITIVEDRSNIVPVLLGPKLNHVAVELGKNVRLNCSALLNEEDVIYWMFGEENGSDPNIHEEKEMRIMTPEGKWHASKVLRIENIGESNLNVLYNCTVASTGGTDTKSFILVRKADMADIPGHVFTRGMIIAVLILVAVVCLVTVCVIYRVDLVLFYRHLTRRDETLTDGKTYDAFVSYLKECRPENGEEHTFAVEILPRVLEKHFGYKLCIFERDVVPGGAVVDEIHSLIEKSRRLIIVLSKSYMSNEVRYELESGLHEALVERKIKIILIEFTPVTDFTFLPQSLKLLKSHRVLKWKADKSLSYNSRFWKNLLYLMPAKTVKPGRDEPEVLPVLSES
T2 sequence (looked up) 2: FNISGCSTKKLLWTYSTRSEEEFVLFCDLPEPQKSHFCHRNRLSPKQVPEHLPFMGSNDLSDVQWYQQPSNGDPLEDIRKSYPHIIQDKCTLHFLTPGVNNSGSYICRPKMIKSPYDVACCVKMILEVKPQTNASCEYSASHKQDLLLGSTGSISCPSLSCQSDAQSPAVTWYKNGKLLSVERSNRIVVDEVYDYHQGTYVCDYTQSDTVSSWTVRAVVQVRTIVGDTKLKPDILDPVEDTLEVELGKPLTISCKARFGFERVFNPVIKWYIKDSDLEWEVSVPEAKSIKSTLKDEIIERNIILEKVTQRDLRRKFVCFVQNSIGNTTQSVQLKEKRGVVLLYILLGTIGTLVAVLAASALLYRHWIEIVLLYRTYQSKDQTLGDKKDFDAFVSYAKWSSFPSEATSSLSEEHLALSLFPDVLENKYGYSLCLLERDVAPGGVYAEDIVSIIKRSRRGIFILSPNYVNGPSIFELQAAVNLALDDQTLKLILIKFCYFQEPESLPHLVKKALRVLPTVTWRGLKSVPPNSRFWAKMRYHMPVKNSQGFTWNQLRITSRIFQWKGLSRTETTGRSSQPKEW

[3] = biological target: T3, IL-18 receptor (IL-18Rα and IL-18Rβ) (UniProt Q13478 19-541; O95256 20-599, limits assumed); experiment: cell-based or functional assay
T3 sequence (looked up) 1: T2 sequence (looked up) 1
T3 sequence (looked up) 2: T2 sequence (looked up) 2

[4] = biological target: T4, human IL-18 binding protein (IL-18BP) (human, UniProt O95998 31-194); experiment: Octet BLI
T4 construct: also called hu IL-18BP; hIL18BP
T4 sequence (looked up): T1 sequence (looked up)
Protocol: (§1) Octet 96red instrument was used to determine affinities of IL18 proteins to BP or receptors. 5-10 ug/ml analyte proteins were used for loading on Sartorius tips (AHC or SA). […] 120-180 s loading, 200 s association and 800 s dissociation were used for kinetics. 3-7 data points were used to calculate affinities.

[5] = biological target: T5, human IL-18 receptor alpha (IL-18Rα) (human, UniProt Q13478 19-329, limits assumed); experiment: Octet BLI
T5 construct: also called hu IL-18Ra; IL-18R alpha
T5 sequence (looked up): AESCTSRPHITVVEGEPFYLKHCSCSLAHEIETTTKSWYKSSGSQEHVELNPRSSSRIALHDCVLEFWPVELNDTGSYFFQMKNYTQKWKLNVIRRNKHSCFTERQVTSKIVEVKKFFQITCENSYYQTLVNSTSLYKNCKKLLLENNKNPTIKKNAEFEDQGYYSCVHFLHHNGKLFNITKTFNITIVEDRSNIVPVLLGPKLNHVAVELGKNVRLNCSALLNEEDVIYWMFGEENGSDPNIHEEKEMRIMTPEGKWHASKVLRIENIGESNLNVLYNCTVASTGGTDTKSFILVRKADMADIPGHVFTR
Protocol: as §1

[6] = biological target: T6, human IL-18R alpha/beta pair (IL-18Rab) (human, UniProt Q13478 19-329; O95256 20-356); experiment: Octet BLI
T6 construct: also called hu IL-18Rab
T6 sequence (looked up) 1: T5 sequence (looked up)
T6 sequence (looked up) 2: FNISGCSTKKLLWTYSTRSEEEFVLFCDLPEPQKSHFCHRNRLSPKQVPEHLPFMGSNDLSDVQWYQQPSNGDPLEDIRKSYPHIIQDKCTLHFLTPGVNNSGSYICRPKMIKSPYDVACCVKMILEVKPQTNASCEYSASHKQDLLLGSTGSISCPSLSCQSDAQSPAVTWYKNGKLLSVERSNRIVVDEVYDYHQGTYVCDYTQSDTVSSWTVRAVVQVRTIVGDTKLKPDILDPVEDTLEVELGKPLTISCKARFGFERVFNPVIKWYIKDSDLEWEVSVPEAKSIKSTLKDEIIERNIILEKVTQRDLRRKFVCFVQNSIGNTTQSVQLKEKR
Protocol: as §1

[7] = biological target: T7, IL-18 receptors on HEK-Blue IL-18 reporter cells (InvivoGen) (UniProt Q13478 19-541; O95256 20-599); experiment: cell-based or functional assay
T7 sequence (looked up) 1: T2 sequence (looked up) 1
T7 sequence (looked up) 2: T2 sequence (looked up) 2

[8] = biological target: T4, human IL-18 binding protein (IL-18BP); experiment: cell-based or functional assay
[9] = biological target: T4, human IL-18 binding protein (IL-18BP); experiment: cell-based or functional assay; remark: listed apart in the source
[10] = biological target: T3, IL-18 receptor (IL-18Rα and IL-18Rβ); experiment: cell-based or functional assay; remark: listed apart in the source
[11] = biological target: T7, IL-18 receptors on HEK-Blue IL-18 …; experiment: cell-based or functional assay; remark: listed apart in the source
[12] = biological target: T4, human IL-18 binding protein (IL-18BP); experiment: cell-based or functional assay; remark: listed apart in the source
[13] = biological target: T7, IL-18 receptors on HEK-Blue IL-18 …; experiment: cell-based or functional assay; remark: listed apart in the source
[14] = biological target: T4, human IL-18 binding protein (IL-18BP); experiment: cell-based or functional assay; remark: listed apart in the source
[15] = biological target: T7, IL-18 receptors on HEK-Blue IL-18 …; experiment: cell-based or functional assay; remark: listed apart in the source
[16] = biological target: T4, human IL-18 binding protein (IL-18BP); experiment: cell-based or functional assay; remark: listed apart in the source
[17] = biological target: T4, human IL-18 binding protein (IL-18BP); experiment: Octet BLI; remark: listed apart in the source
[18] = biological target: T5, human IL-18 receptor alpha (IL-18Rα); experiment: Octet BLI; remark: listed apart in the source
[19] = biological target: T6, human IL-18R alpha/beta pair (IL-18Rab); experiment: Octet BLI; remark: listed apart in the source
[20] = biological target: T4, human IL-18 binding protein (IL-18BP); experiment: Octet BLI; remark: listed apart in the source

B1: G3T/M60K-monospecific KiH (Fc fusion)
chain: YFTKLESKLSVIRNLNDQVLFIDQGNRPLFEDMTDSDMRDNAPRTIFIISMYKDSQPRGKAVTISVKSEKISTLSSENKIISFKEMNPPDNIKDTKSDIIFFQRSVPGHDNKMQFESSSYEGYFLASEKERDLFKLILKKEDELGDRSIMFTVQNED
HEK-blue EC50 (pM) + 300 nM IL-18BP [1]: 2.64 pM
HEK-blue EC50 (pM) - IL-18BP [2]: 0.27 pM

B2: G3V/M60K-monospecific KiH (Fc fusion)
chain: B1 chain with T3V
HEK-blue EC50 (pM) + 300 nM IL-18BP [1]: 2.01 pM
HEK-blue EC50 (pM) - IL-18BP [2]: 0.06 pM

B3: G3T/E6K/K53A-monospecific KiH (Fc fusion)
chain: B1 chain with E6K, K53A, K60M
HEK-blue EC50 (pM) + 300 nM IL-18BP [1]: 1.16 pM
HEK-blue EC50 (pM) - IL-18BP [2]: 0.04 pM

B4: Comparator 1 (human IL-18 variant M51K, K53S, Q56L, P57A, M60L, S105D, D110S, N111R) (ligand)
chain: YFGKLESKLSVIRNLNDQVLFIDQGNRPLFEDMTDSDCRDNAPRTIFIISKYSDSLARGLAVTISVKCEKISTLSCENKIISFKEMNPPDNIKDTKSDIIFFQRDVPGHSRKMQFESSSYEGYFLACEKERDLFKLILKKEDELGDRSIMFTVQNED
EC50 pM, IFN gamma expression in PBMCs [3]: 0.093 pM
binding result [4]: no binding
Kd [5]: 16 nM
Kd [6]: 0.43 nM
HEK-Blue EC50 pM, NO BP (50 nM BP run) [7]: 0.02 pM
HEK-Blue EC50 pM, NO BP (300 nM BP run) [7]: 0.13 pM
Fold Change (BP/NO BP), 50 nM BP [8]: 2.5 fold
Fold Change (BP/NO BP), 300 nM BP [8]: 0.83 fold
HEK-Blue EC50 pM, +50 nM BP [8]: 0.04 pM
HEK-blue EC50 (pM) + 300 nM BP [8]: 0.11 pM
EC50 pM, IFN gamma expression in PBMCs, + 300 nM BP [9]: 1.82 pM
EC50 pM, IFN gamma expression in PBMCs, no BP [10]: 1.22 pM
HEK-Blue Activity Assay Ec50 (pM), -hu IL-18BP [11]: 0.08 pM
HEK-Blue Activity Assay Ec50 (pM), +300 nM hu IL-18BP [12]: 0.09 pM
HEK-Blue Ec50 (pM), -IL-18BP [13]: 0.15 pM
HEK-Blue Ec50 (pM), +IL-18BP (50 nM) [14]: 0.22 pM

B5: Comparator 1-monospecific KiH (Fc fusion)
chain: B4 chain
HEK-blue EC50 (pM) + 300 nM IL-18BP [1]: 0.03 pM
HEK-blue EC50 (pM) - IL-18BP [2]: 0.03 pM

B6: IL-18 variant G3R, K53S (ligand)
chain: B1 chain with T3R, K53S, K60M
EC50 pM, IFN gamma expression in PBMCs [3]: 73.8 pM
HEK-Blue Activity Assay Ec50 (pM), -hu IL-18BP [15]: 0.31 pM
HEK-Blue Activity Assay Ec50 (pM), +50 nM hu IL-18BP [16]: 1.84 pM
Kd [17]: 4.03 nM
Kd [18]: 197 nM
Kd [19]: 0.09 nM
Kd [20]: 4 nM
koff [20]: 0.00143 s⁻¹
kon [20]: 356000 M⁻¹ s⁻¹
HEK-Blue Ec50 (pM), -IL-18BP [13]: 0.31 pM
HEK-Blue Ec50 (pM), +IL-18BP (50 nM) [14]: 1.84 pM

B7: IL-18 variant G3V, M60K, D157E (ligand)
chain: B1 chain with T3V, D157E
Kd [4]: 87 nM
Kd [5]: 43 nM
Kd [6]: 0.13 nM
HEK-Blue EC50 pM, NO BP (50 nM BP run) [7]: 0.08 pM
HEK-Blue EC50 pM, NO BP (300 nM BP run) [7]: 0.16 pM
Fold Change (BP/NO BP), 50 nM BP [8]: 1.74 fold
Fold Change (BP/NO BP), 300 nM BP [8]: 3.74 fold
HEK-Blue EC50 pM, +50 nM BP [8]: 0.14 pM
HEK-blue EC50 (pM) + 300 nM BP [8]: 0.6 pM
EC50 pM, IFN gamma expression in PBMCs, + 300 nM BP [9]: 13 pM
EC50 pM, IFN gamma expression in PBMCs, no BP [10]: 6.61 pM
HEK-Blue Activity Assay Ec50 (pM), -hu IL-18BP [11]: 0.16 pM
HEK-Blue Activity Assay Ec50 (pM), +300 nM hu IL-18BP [12]: 0.6 pM

B8: IL-18 variant G3E, K53S (ligand)
chain: B1 chain with T3E, K53S, K60M
EC50 pM, IFN gamma expression in PBMCs [3]: 517 pM
HEK-Blue Activity Assay Ec50 (pM), -hu IL-18BP [15]: 2.69 pM
HEK-Blue Activity Assay Ec50 (pM), +50 nM hu IL-18BP [16]: 4.41 pM
Kd [17]: 396 nM
Kd [18]: 8920 nM
Kd [19]: 0.31 nM
Kd [20]: 396 nM
koff [20]: 0.0311 s⁻¹
kon [20]: 78500 M⁻¹ s⁻¹
HEK-Blue Ec50 (pM), -IL-18BP [13]: 2.69 pM
HEK-Blue Ec50 (pM), +IL-18BP (50 nM) [14]: 4.41 pM

B9: IL-18 variant G3T, M60K (ligand)
chain: B1 chain
Kd [4]: 779 nM
Kd [5]: 555 nM
Kd [6]: 0.02 nM
HEK-Blue EC50 pM, NO BP (50 nM BP run) [7]: 0.71 pM
HEK-Blue EC50 pM, NO BP (300 nM BP run) [7]: 0.76 pM
Fold Change (BP/NO BP), 50 nM BP [8]: 0.99 fold
Fold Change (BP/NO BP), 300 nM BP [8]: 3.14 fold
HEK-Blue EC50 pM, +50 nM BP [8]: 0.7 pM
HEK-blue EC50 (pM) + 300 nM BP [8]: 2.4 pM
EC50 pM, IFN gamma expression in PBMCs, + 300 nM BP [9]: 117 pM
EC50 pM, IFN gamma expression in PBMCs, no BP [10]: 214 pM
HEK-Blue Activity Assay Ec50 (pM), -hu IL-18BP [11]: 0.76 pM
HEK-Blue Activity Assay Ec50 (pM), +300 nM hu IL-18BP [12]: 2.4 pM
